Assay [1] deals with recombinant human CD3 epsilon & delta (rhCD3ε & δ), Creative BioMart cat #CD3E&CD3D-219H (human) (UniProt P07766). As to the kind of experiment: sandwich ELISA: rhCD3ε & δ coated, biotinylated anti-XTEN antibody detection. On the technique in general: ELISA stands for enzyme-linked immunosorbent assay.
The target in assay [2] is T1, human EpCAM expressed on cells (CHO cells stably transfected with human EpCAM); EpCAM-positive human tumor … (human, UniProt P16422 24-314).
T1 sequence (looked up): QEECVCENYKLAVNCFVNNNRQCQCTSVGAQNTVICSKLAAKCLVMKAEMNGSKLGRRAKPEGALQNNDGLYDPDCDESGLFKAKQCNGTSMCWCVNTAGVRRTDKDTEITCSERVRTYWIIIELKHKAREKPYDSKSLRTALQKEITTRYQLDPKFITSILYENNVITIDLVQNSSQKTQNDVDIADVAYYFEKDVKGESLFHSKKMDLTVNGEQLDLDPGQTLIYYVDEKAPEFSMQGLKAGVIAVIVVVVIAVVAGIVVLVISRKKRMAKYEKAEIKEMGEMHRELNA
As to the kind of experiment: cell-based or functional assay.

Assay [3] has as its target T2, recombinant human EpCAM (rhEpCAM), coated on ELISA plate (human, UniProt P16422 24-265).
T2 construct: Bought reagent
T2 sequence (looked up): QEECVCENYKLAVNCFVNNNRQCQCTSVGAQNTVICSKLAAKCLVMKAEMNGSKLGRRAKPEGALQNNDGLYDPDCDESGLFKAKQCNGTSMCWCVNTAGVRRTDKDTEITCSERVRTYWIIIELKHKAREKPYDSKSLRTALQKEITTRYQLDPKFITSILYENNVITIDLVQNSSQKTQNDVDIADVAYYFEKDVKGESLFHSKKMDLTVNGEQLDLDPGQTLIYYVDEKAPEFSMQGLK
Description: sandwich ELISA: rhEpCAM coated, peroxidase-conjugated protein L detection.

Assay [4] deals with human CD3 on cells (CD3+ Jurkat cells; purified human CD3 positive T cells) (human, UniProt P07766 23-207). Description: cell-based or functional assay.
In assay [5] the target is recombinant human CD3 epsilon & delta (rhCD3ε & δ), Creative BioMart cat #CD3E&CD3D-219H (human) (UniProt P07766). As to the kind of experiment: sandwich ELISA: rhCD3ε & δ coated, peroxidase-conjugated protein L detection.
Assay [6] shares this target. Description: SPR (Biacore 3000), His-tagged CD3εδ coupled to chip, ProTIA as analyte at 5-6 concentrations.
The target of assay [7] is T3, Fc-tagged EpCAM (R&D Systems, cat #960-EP-050), human, coupled to SPR chip (human, UniProt P16422 24-265).
T3 construct: Bought reagent; also called human EpCAM; EpCAM chip; not shown: Fc tag of the bought reagent
T3 sequence (looked up): T2 sequence (looked up)
Description: SPR (Biacore 3000), Fc-tagged EpCAM coupled to chip, ProTIA as analyte at 5-6 concentrations.

This is an account of results in patent US12060424 (AMUNIX PHARMACEUTICALS, dated 2024).

Chain of human CD3 on cells (CD3+ Jurkat cells; purified human CD3 positive T cells) (P07766 23-207): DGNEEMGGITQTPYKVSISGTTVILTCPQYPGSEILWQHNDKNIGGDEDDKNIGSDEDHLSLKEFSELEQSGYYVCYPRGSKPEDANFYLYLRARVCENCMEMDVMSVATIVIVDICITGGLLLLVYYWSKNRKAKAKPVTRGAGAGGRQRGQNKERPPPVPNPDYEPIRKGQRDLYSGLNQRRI
Chain of recombinant human CD3 epsilon & delta (rhCD3ε & δ), Creative BioMart cat #CD3E&CD3D-219H (human) (P07766 23-126, stated change not applied, chain 1 of 2): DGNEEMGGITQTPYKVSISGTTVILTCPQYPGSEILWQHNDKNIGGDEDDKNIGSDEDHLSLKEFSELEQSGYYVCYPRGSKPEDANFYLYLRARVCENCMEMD
Chain of recombinant human CD3 epsilon & delta (rhCD3ε & δ), Creative BioMart cat #CD3E&CD3D-219H (human) (P04234 22-105, stated change not applied, chain 2 of 2, further chain): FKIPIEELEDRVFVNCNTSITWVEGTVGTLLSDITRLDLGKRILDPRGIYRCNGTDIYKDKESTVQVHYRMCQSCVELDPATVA

B1: AC1693 protease-untreated anti-EpCAM×anti-CD3 ProTIA (bispecific antibody)
chain: DIQMTQSPSSLSASVGDRVTITCRSTKSLLHSNGITYLYWYQQKPGKAPKLLIYQMSNLASGVPSRFSSSGSGTDFTLTISSLQPEDFATYYCAQNLEIPRTFGQGTKVEIKGATPPETGAETESPGETTGGSAESEPPGEGQVQLVQSGPGLVQPGGSVRISCAASGYTFTNYGMNWVKQAPGKGLEWMGWINTYTGESTYADSFKGRFTFSLDTSASAAYLQINSLRAEDTAVYYCARFAIKGDYWGQGTLLTVSSGGGGSDIQMTQSPSSLSASVGDRVTITCRASQDIRNYLNWYQQKPGKAPKLLIYYTSRLESGVPSRFSGSGSGTDYTLTISSLQPEDFATYYCQQGNTLPWTFGQGTKVEIKGATPPETGAETESPGETTGGSAESEPPGEGEVQLVESGGGLVQPGGSLRLSCAASGYSFTGYTMNWVRQAPGKGLEWVALINPYKGVSTYNQKFKDRFTISVDKSKNTAYLQMNSLRAEDTAVYYCARSGYYGDSDWYFDVWGQGTLVTVSSGTAEAASASGESGRAANHTGAPPGGLTGPPGSPAGSPTSTEEGTSESATPESGPGTSTEPSEGSAPGSPAGSPTSTEEGTSTEPSEGSAPGTSTEPSEGSAPGTSESATPESGPGSEPATSGSETPGSEPATSGSETPGSPAGSPTSTEEGTSESATPESGPGTSTEPSEGSAPGTSTEPSEGSAPGSPAGSPTSTEEGTSTEPSEGSAPGTSTEPSEGSAPGTSESATPESGPGTSTEPSEGSAPGTSESATPESGPGSEPATSGSETPGTSTEPSEGSAPGTSTEPSEGSAPGTSESATPESGPGTSESATPESGPGSPAGSPTSTEEGTSESATPESGPGSEPATSGSETPGTSESATPESGPGTSTEPSEGSAPGTSTEPSEGSAPGTSTEPSEGSAPGTSTEPSEGSAPGTSTEPSEGSAPGTSTEPSEGSAPGSPAGSPTSTEEGTSTEPSEGSAPGTSESATPESGPGSEPATSGSETPGTSESATPESGPGSEPATSGSETPGTSESATPESGPGTSTEPSEGSAPGTSESATPESGPGSPAGSPTSTEEGSPAGSPTSTEEGSPAGSPTSTEEGTSESATPESGPGTSTEPSEGSAPGTSESATPESGPGSEPATSGSETPGTSESATPESGPGSEPATSGSETPGTSESATPESGPGTSTEPSEGSAPGSPAGSPTSTEEGTSESATPESGPGSEPATSGSETPGTSESATPESGPGSPAGSPTSTEEGSPAGSPTSTEEGTSTEPSEGSAPGTSESATPESGPGTSESATPESGPGTSESATPESGPGSEPATSGSETPGSEPATSGSETPGSPAGSPTSTEEGTSTEPSEGSAPGTSTEPSEGSAPGSEPATSGSETPGTSESATPESGPGTSTEPSEGSAPGHHHHHH
For the molecule B1, in assay [1], the EC50 worked out at 0.009 µg/mL and the fold more active binding than the non-cleavable AC1484 stood at 3 fold. Further, in assay [2], the “EC50 (pM), caspase 3/7 cytotoxicity, PBMC with HCT-116 cells 10:1” value is 21 pM; the “EC50 (pM), caspase 3/7 cytotoxicity, PBMC with HPAF-II cells 10:1” value worked out at 12 pM; the “EC50 (pM), caspase 3/7 cytotoxicity, PBMC with MDA-MB-231 cells 10:1” value worked out at 3480 pM.

B2: AC1484 non-cleavable anti-EpCAM×anti-CD3 ProTIA (ProTIA without the release segment cleavage sequence) (bispecific antibody)
chain: DIQMTQSPSSLSASVGDRVTITCRSTKSLLHSNGITYLYWYQQKPGKAPKLLIYQMSNLASGVPSRFSSSGSGTDFTLTISSLQPEDFATYYCAQNLEIPRTFGQGTKVEIKGATPPETGAETESPGETTGGSAESEPPGEGQVQLVQSGPGLVQPGGSVRISCAASGYTFTNYGMNWVKQAPGKGLEWMGWINTYTGESTYADSFKGRFTFSLDTSASAAYLQINSLRAEDTAVYYCARFAIKGDYWGQGTLLTVSSGGGGSDIQMTQSPSSLSASVGDRVTITCRASQDIRNYLNWYQQKPGKAPKLLIYYTSRLESGVPSRFSGSGSGTDYTLTISSLQPEDFATYYCQQGNTLPWTFGQGTKVEIKGATPPETGAETESPGETTGGSAESEPPGEGEVQLVESGGGLVQPGGSLRLSCAASGYSFTGYTMNWVRQAPGKGLEWVALINPYKGVSTYNQKFKDRFTISVDKSKNTAYLQMNSLRAEDTAVYYCARSGYYGDSDWYFDVWGQGTLVTVSSGSPGSPAGSPTSTEEGTSESATPESGPGTSTEPSEGSAPGSPAGSPTSTEEGTSTEPSEGSAPGTSTEPSEGSAPGTSESATPESGPGSEPATSGSETPGSEPATSGSETPGSPAGSPTSTEEGTSESATPESGPGTSTEPSEGSAPGTSTEPSEGSAPGSPAGSPTSTEEGTSTEPSEGSAPGTSTEPSEGSAPGTSESATPESGPGTSTEPSEGSAPGTSESATPESGPGSEPATSGSETPGTSTEPSEGSAPGTSTEPSEGSAPGTSESATPESGPGTSESATPESGPGSPAGSPTSTEEGTSESATPESGPGSEPATSGSETPGTSESATPESGPGTSTEPSEGSAPGTSTEPSEGSAPGTSTEPSEGSAPGTSTEPSEGSAPGTSTEPSEGSAPGTSTEPSEGSAPGSPAGSPTSTEEGTSTEPSEGSAPGTSESATPESGPGSEPATSGSETPGTSESATPESGPGSEPATSGSETPGTSESATPESGPGTSTEPSEGSAPGTSESATPESGPGSPAGSPTSTEEGSPAGSPTSTEEGSPAGSPTSTEEGTSESATPESGPGTSTEPSEGSAPGTSESATPESGPGSEPATSGSETPGTSESATPESGPGSEPATSGSETPGTSESATPESGPGTSTEPSEGSAPGSPAGSPTSTEEGTSESATPESGPGSEPATSGSETPGTSESATPESGPGSPAGSPTSTEEGSPAGSPTSTEEGTSTEPSEGSAPGTSESATPESGPGTSESATPESGPGTSESATPESGPGSEPATSGSETPGSEPATSGSETPGSPAGSPTSTEEGTSTEPSEGSAPGTSTEPSEGSAPGSEPATSGSETPGTSESATPESGPGTSTEPSEGSAPGHHHHHH
notes: Single chain: anti-EpCAM scFv, anti-CD3 scFv, XTEN864, His6, no release segment; also called non-cleavable ProTIA; protease-non-cleavable anti-EpCAM×anti-CD3 ProTIA
Consider B2, for which the EC50 in assay [3] was 0.32 nM. Also, in assay [4], the “EC50, LDH release cytotoxicity, purified human CD3 positive T cells with OVCAR-3 cells 5:1” value was 0.086 nM and the “EC50, LDH release cytotoxicity, purified human CD3 positive T cells with SK-OV-3 cells 5:1” value turned out to be 2.66 nM. For the same molecule, the EC50 in assay [1] is 0.027 µg/mL. The 50% effective concentration (EC50) in assay [5] is 2.2 nM. In assay [2], the “EC50 (pM), caspase 3/7 cytotoxicity, PBMC with HCT-116 cells 10:1” value is 1270 pM; the “EC50 (pM), caspase 3/7 cytotoxicity, PBMC with HPAF-II cells 10:1” value turned out to be 1170 pM; the “EC50 (pM), caspase 3/7 cytotoxicity, PBMC with MDA-MB-231 cells 10:1” value worked out at 10200 pM. For the same molecule, in assay [6], the Kd was 27.8 nM. Besides, in assay [7], the Kd was 10 nM.

B3: AC1476 aEpCAM-aCD3-BSRS1-XTEN_AE864-His(6), protease-untreated (uncleaved) anti-EpCAM×anti-CD3 ProTIA (bispecific antibody)
chain: DIQMTQSPSSLSASVGDRVTITCRSTKSLLHSNGITYLYWYQQKPGKAPKLLIYQMSNLASGVPSRFSSSGSGTDFTLTISSLQPEDFATYYCAQNLEIPRTFGQGTKVEIKGATPPETGAETESPGETTGGSAESEPPGEGQVQLVQSGPGLVQPGGSVRISCAASGYTFTNYGMNWVKQAPGKGLEWMGWINTYTGESTYADSFKGRFTFSLDTSASAAYLQINSLRAEDTAVYYCARFAIKGDYWGQGTLLTVSSGGGGSDIQMTQSPSSLSASVGDRVTITCRASQDIRNYLNWYQQKPGKAPKLLIYYTSRLESGVPSRFSGSGSGTDYTLTISSLQPEDFATYYCQQGNTLPWTFGQGTKVEIKGATPPETGAETESPGETTGGSAESEPPGEGEVQLVESGGGLVQPGGSLRLSCAASGYSFTGYTMNWVRQAPGKGLEWVALINPYKGVSTYNQKFKDRFTISVDKSKNTAYLQMNSLRAEDTAVYYCARSGYYGDSDWYFDVWGQGTLVTVSSGTAEAASASGLSGRSDNHSPLGLAGSPGSPAGSPTSTEEGTSESATPESGPGTSTEPSEGSAPGSPAGSPTSTEEGTSTEPSEGSAPGTSTEPSEGSAPGTSESATPESGPGSEPATSGSETPGSEPATSGSETPGSPAGSPTSTEEGTSESATPESGPGTSTEPSEGSAPGTSTEPSEGSAPGSPAGSPTSTEEGTSTEPSEGSAPGTSTEPSEGSAPGTSESATPESGPGTSTEPSEGSAPGTSESATPESGPGSEPATSGSETPGTSTEPSEGSAPGTSTEPSEGSAPGTSESATPESGPGTSESATPESGPGSPAGSPTSTEEGTSESATPESGPGSEPATSGSETPGTSESATPESGPGTSTEPSEGSAPGTSTEPSEGSAPGTSTEPSEGSAPGTSTEPSEGSAPGTSTEPSEGSAPGTSTEPSEGSAPGSPAGSPTSTEEGTSTEPSEGSAPGTSESATPESGPGSEPATSGSETPGTSESATPESGPGSEPATSGSETPGTSESATPESGPGTSTEPSEGSAPGTSESATPESGPGSPAGSPTSTEEGSPAGSPTSTEEGSPAGSPTSTEEGTSESATPESGPGTSTEPSEGSAPGTSESATPESGPGSEPATSGSETPGTSESATPESGPGSEPATSGSETPGTSESATPESGPGTSTEPSEGSAPGSPAGSPTSTEEGTSESATPESGPGSEPATSGSETPGTSESATPESGPGSPAGSPTSTEEGSPAGSPTSTEEGTSTEPSEGSAPGTSESATPESGPGTSESATPESGPGTSESATPESGPGSEPATSGSETPGSEPATSGSETPGSPAGSPTSTEEGTSTEPSEGSAPGTSTEPSEGSAPGSEPATSGSETPGTSESATPESGPGTSTEPSEGSAPGHHHHHH
notes: Single chain: anti-EpCAM scFv, anti-CD3 scFv, release segment BSRS-1, XTEN864, His6; also called ProTIA-X
As for B3, in assay [3], the EC50 amounted to 0.28 nM and the “fold hindrance of binding by XTEN864 (against the protease-treated ProTIA)” value was at least 2.3 fold. In assay [4], the “EC50, LDH release cytotoxicity, purified human CD3 positive T cells with OVCAR-3 cells 5:1” value amounted to 0.0007 nM and the “EC50, LDH release cytotoxicity, purified human CD3 positive T cells with SK-OV-3 cells 5:1” value stood at 0.134 nM. In assay [5], the EC50 worked out at 1.8 nM; the fold hindrance of binding by XTEN864 (against the cleaved and released anti-CD3scFv portion) was 5.8 fold. The Kd in assay [6] was 15.3 nM. In assay [7], this molecule had a Kd of 11.4 nM.

A word on the EC50: it is the concentration that produces a half-maximal response. By Kd is commonly meant the concentration at which binding is half-saturated.
